The record followed here is patent US7220822.

In the experiment the target is CD80-Ig (extracellular domain of CD80 fused with the constant region of mouse IgG1 heavy chain) (mouse). The experiment in a line: SPR, CD28-Ig (187 nM to 12 µM) over CD80-Ig captured by anti-mouse IgG1 Fc. Background: SPR reads the build-up and loss of mass on a sensor chip optically.

Broadly, the koff is a measure of how fast the partners let go of each other. Broadly, the kon is the rate constant with which the complex forms. A low value points to slower complex formation. CD28-Ig (Fc fusion): the dissociation rate constant (koff) is 0.563 s⁻¹ and the kon came out at 138000 M⁻¹ s⁻¹.
